Reference: publication PMC7515726 (Nucleic Acids Research, 2020)

Biological target: FLAG-hH2A.D wild-type nucleosome, 147 bp 601 DNA (ELYS pulldowns) (human, UniProt P20671;P62807;Q71DI3;P62805)
Assay: pull-down

binding result: binds
B1: MBP-His6-TEV-ELYS^C, C-terminal fragment of human ELYS (2157-2275) (domain or fragment)
chain: SSQFVISPPALRSRQKNTSNKNKLEDELKDDAQSVETLGKPKAKRIRTSKTKQASKNTEKESAWSPPPIEIRLISPLASPADGVKSKPRKTTEVTGTGLGRNRKKLSSYPKQILRRKML
